Assays:
[1] = target: SUMO-CD99 fusion protein (SUMO fused with the extracellular domain of CD99, residues 23-122) (human) (UniProt P14209); assay: apparent affinity to the recombinant ECD of CD99; method not given, value compared with the bead-based values of FIG. 1F
[2] = target: CD99 endogenously expressed on cells (Jurkat, KOPT-K1) (UniProt P14209); assay: cell binding; apparent KD; nM molecule; avid
[3] = target: CD99 endogenously expressed on cells (Jurkat, KOPT-K1) (UniProt P14209); assay: cell binding; apparent KD; nM Fv; avid

Sequence of CD99 endogenously expressed on cells (Jurkat, KOPT-K1) (P14209 23-185): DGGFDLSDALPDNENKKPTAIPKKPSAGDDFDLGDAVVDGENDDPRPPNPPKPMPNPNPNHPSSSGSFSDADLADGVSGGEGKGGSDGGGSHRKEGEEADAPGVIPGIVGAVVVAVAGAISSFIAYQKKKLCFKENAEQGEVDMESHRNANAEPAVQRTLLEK
Sequence of SUMO-CD99 fusion protein (SUMO fused with the extracellular domain of CD99, residues 23-122) (human) (P14209 23-122): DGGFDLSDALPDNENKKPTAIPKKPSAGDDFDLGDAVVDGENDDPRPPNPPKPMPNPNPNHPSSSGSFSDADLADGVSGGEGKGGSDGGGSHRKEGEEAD

anti-CD99 mouse IgM, HO36-1.1 (ab212605, Abcam) (antibody)
Kd [1]: 226 nM

bivalent SAV-10A1 Fab complex (A2D2 streptavidin with biotinylated 10A1 Fab) (from UniProt P22629 37-163; P22629 37-163)
Kd [2]: 2.6 nM
Kd [3]: 5.2 nM

trivalent SAV-10A1 Fab complex (A3D1 streptavidin with biotinylated 10A1 Fab) (from UniProt P22629 37-163; P22629 37-163)
Kd [2]: 1.3 nM
Kd [3]: 3.9 nM

Reference: patent publication US20240190985A1
